For assay [1], the target named is T1, 大肠杆菌表达的GST-MIF重组蛋白 (human, UniProt P14174 1-115).
T1 construct: Coating antigen (10 ug/ml) of the ELISA that gave all the dissociation constants; GST is placed N-terminal by the name GST-MIF; also called 人MIF; not shown: GST tag and vector-encoded residues from pET-41a
T1 sequence (looked up): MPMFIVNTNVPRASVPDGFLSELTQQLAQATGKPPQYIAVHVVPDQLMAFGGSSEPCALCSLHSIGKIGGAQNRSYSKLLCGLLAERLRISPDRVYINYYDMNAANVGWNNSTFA
As to the kind of experiment: ELISA on coated GST-MIF (10 ug/ml); antibody concentration at 50% of the maximal reading is taken as the dissociation constant.

In assay [2] the target is T1, 大肠杆菌表达的GST-MIF重组蛋白. As to the kind of experiment: ELISA by the method of Example 1 (coated GST-MIF; concentration at 50% of the maximal reading).

Where “and” joins values, the source holds several entries; their conditions need not be identical. Equal entries are not always repeated.

B1: 杂交瘤细胞株10C3 CGMCC No.1717分泌的单克隆抗体 (antibody, mouse IgG2b, V domains shown)
VH: QVQLEESGGALVKPGGSLKLSCAASGFTFSTYAMSWVRQTPEKRLEWVATISSGGDYTHYPDSVKGRFTISRDNARNTLYLQMSSLRSEDTAMFYCARPYYGSSYWFYDVWGAGTTVTVSS
VL: DIVLTQTPVSIIASRGEKVTITCRARSSISSTYLHWYQQKPGSSPKLLIYRTSILASGVLDSFSGSGSETSDTLTISCMQDEVAATYYCQQGSSSPLTFGAGTKLELKR
notes: the mouse constant regions are not; Hybridoma supernatant was used in the ELISA and ascites-purified antibody in the cell assays; also called 10C3Ab; anti-MIF
For B1, the Kd in assay [1] is 3 nM and 0.48 µg/mL.

B2: 人-鼠嵌合抗体ch-10C3 (antibody, V domains shown)
VH: QVQLEESGGALVKPGGSLKLSCAASGFTFSTYAMSWVRQTPEKRLEWVATISSGGDYTHYPDSVKGRFTISRDNARNTLYLQMSSLRSEDTAMFYCARPYYGSSYWFYDVWGAGTTVTVSS
VL: DIVLTQTPVSIIASRGEKVTITCRARSSISSTYLHWYQQKPGSSPKLLIYRTSILASGVLDSFSGSGSETSDTLTISCMQDEVAATYYCQQGSSSPLTFGAGTKLELKR
Regarding B2, in assay [2], the Kd stood at 3 nM.

B3: 抗MIF的Fab片段10C3Fab (Fab, V domains shown)
VH: QVQLEESGGALVKPGGSLKLSCAASGFTFSTYAMSWVRQTPEKRLEWVATISSGGDYTHYPDSVKGRFTISRDNARNTLYLQMSSLRSEDTAMFYCARPYYGSSYWFYDVWGAGTTVTVSS
VL: DIVLTQTPVSIIASRGEKVTITCRARSSISSTYLHWYQQKPGSSPKLLIYRTSILASGVLDSFSGSGSETSDTLTISCMQDEVAATYYCQQGSSSPLTFGAGTKLELKR
In turn, B3 gave a Kd in assay [2] of 10 nM.

B4: 抗MIF单链抗体10C3scFV (scFv)
scFv: QVQLEESGGALVKPGGSLKLSCAASGFTFSTYAMSWVRQTPEKRLEWVATISSGGDYTHYPDSVKGRFTISRDNARNTLYLQMSSLRSEDTAMFYCARPYYGSSYWFYDVWGAGTTVTVSSGSSGSGSSGSGSSGSDIVLTQTPVSIIASRGEKVTITCRARSSISSTYLHWYQQKPGSSPKLLIYRTSILASGVLDSFSGSGSETSDTLTISCMQDEVAATYYCQQGSSSPLTFGAGTKLELKR
notes: Heavy and light variable regions joined by a 15-residue Gly/Ser-rich linker; Expressed from pET-26b in BL21 with a 6xHis tag
B4 gave a Kd in assay [2] of 30 nM.

For the origin of these results see patent publication CN1869207A (INST OF BIOPHYSICS CAS, dated 2006).
